Experimental findings from the Human Domainome abundance scans (Beltran et al. 2025) are described below.

B1: Friend leukemia integration 1 transcription factor, residues 116 to 197; numbered along this chain, Q01543 (parent)
chain: NMTTNERRVIVPADPTLWTQEHVRQWLEWAIKEYSLMEIDTSFFQNMDGKELCKMNKEDFLRATTLYNTEVLLSHLSYLRES

± gives the uncertainty stated by the source.

In the data set the parent is B1. Nature of the data set: abundance fitness (aPCA) (normalised: wild type 0, dead -1); higher = more abundant; growth selection in yeast, the domain comes from the species named. Conditions: Homo sapiens.
In the case of NMTTNERRVIVPADPTLWTQEHVRQWLEWAIKELSLMEIDTSFFQNMDGKELCKMNKEDFLRATTLYNTEVLLSHLSYLRES [Y34L], the abundance fitness was -0.227 ± 0.061.

NMTTNERRVIVPADPTLWTQEHVRQWLEWAIKENSLMEIDTSFFQNMDGKELCKMNKEDFLRATTLYNTEVLLSHLSYLRES [Y34N]: the abundance fitness is 0.245 ± 0.24. As to NMTTNERRVIVPADPTLWTQEHVRQWLEWAIKEGSLMEIDTSFFQNMDGKELCKMNKEDFLRATTLYNTEVLLSHLSYLRES [Y34G], the abundance fitness was -0.215 ± 0.066.

Regarding NMTTNERRVIVPADPTLWTQEHVRQWLEWAIKEMSLMEIDTSFFQNMDGKELCKMNKEDFLRATTLYNTEVLLSHLSYLRES [Y34M], the abundance fitness is -0.185 ± 0.1. In the case of NMTTNERRVIVPADPTLWTQEHVRQWLEWAIKEASLMEIDTSFFQNMDGKELCKMNKEDFLRATTLYNTEVLLSHLSYLRES [Y34A] it was -0.274 ± 0.09; in that of NMTTNERRVIVPADPTLWTQEHVRQWLEWAIKEKSLMEIDTSFFQNMDGKELCKMNKEDFLRATTLYNTEVLLSHLSYLRES [Y34K], -0.032 ± 0.11.

NMTTNERRVIVPADPTLWTQEHVRQWLEWAIKEQSLMEIDTSFFQNMDGKELCKMNKEDFLRATTLYNTEVLLSHLSYLRES [Y34Q]: the abundance fitness was -0.346 ± 0.13.

As for NMTTNERRVIVPADPTLWTQEHVRQWLEWAIKEVSLMEIDTSFFQNMDGKELCKMNKEDFLRATTLYNTEVLLSHLSYLRES [Y34V], the abundance fitness was -0.978 ± 0.14. On to NMTTNERRVIVPADPTLWTQEHVRQWLEWAIKEESLMEIDTSFFQNMDGKELCKMNKEDFLRATTLYNTEVLLSHLSYLRES [Y34E], for which the abundance fitness is -0.181 ± 0.093. In the case of NMTTNERRVIVPADPTLWTQEHVRQWLEWAIKEHSLMEIDTSFFQNMDGKELCKMNKEDFLRATTLYNTEVLLSHLSYLRES [Y34H] it was -0.106 ± 0.2; in that of NMTTNERRVIVPADPTLWTQEHVRQWLEWAIKESSLMEIDTSFFQNMDGKELCKMNKEDFLRATTLYNTEVLLSHLSYLRES [Y34S], -0.108 ± 0.068.

Consider NMTTNERRVIVPADPTLWTQEHVRQWLEWAIKEFSLMEIDTSFFQNMDGKELCKMNKEDFLRATTLYNTEVLLSHLSYLRES [Y34F], for which the abundance fitness amounted to 0.109 ± 0.36.

Take NMTTNERRVIVPADPTLWTQEHVRQWLEWAIKEPSLMEIDTSFFQNMDGKELCKMNKEDFLRATTLYNTEVLLSHLSYLRES [Y34P]: the abundance fitness is -0.897 ± 0.28. In the case of NMTTNERRVIVPADPTLWTQEHVRQWLEWAIKEWSLMEIDTSFFQNMDGKELCKMNKEDFLRATTLYNTEVLLSHLSYLRES [Y34W] it was 0.046 ± 0.077; in that of NMTTNERRVIVPADPTLWTQEHVRQWLEWAIKETSLMEIDTSFFQNMDGKELCKMNKEDFLRATTLYNTEVLLSHLSYLRES [Y34T], -0.684 ± 0.17; in that of NMTTNERRVIVPADPTLWTQEHVRQWLEWAIKERSLMEIDTSFFQNMDGKELCKMNKEDFLRATTLYNTEVLLSHLSYLRES [Y34R], -0.207 ± 0.051.

Regarding NMTTNERRVIVPADPTLWTQEHVRQWLEWAIGEYSLMEIDTSFFQNMDGKELCKMNKEDFLRATTLYNTEVLLSHLSYLRES [K32G], the abundance fitness was -0.2 ± 0.059.

For the variant NMTTNERRVIVPADPTLWTQEHVRQWLEWAITEYSLMEIDTSFFQNMDGKELCKMNKEDFLRATTLYNTEVLLSHLSYLRES [K32T], the abundance fitness is -0.001 ± 0.083. The value for NMTTNERRVIVPADPTLWTQEHVRQWLEWAILEYSLMEIDTSFFQNMDGKELCKMNKEDFLRATTLYNTEVLLSHLSYLRES [K32L] was -0.169 ± 0.056; that for NMTTNERRVIVPADPTLWTQEHVRQWLEWAIVEYSLMEIDTSFFQNMDGKELCKMNKEDFLRATTLYNTEVLLSHLSYLRES [K32V] was -0.157 ± 0.064; that for NMTTNERRVIVPADPTLWTQEHVRQWLEWAIQEYSLMEIDTSFFQNMDGKELCKMNKEDFLRATTLYNTEVLLSHLSYLRES [K32Q] was -0.08 ± 0.073.

Turning to NMTTNERRVIVPADPTLWTQEHVRQWLEWAIHEYSLMEIDTSFFQNMDGKELCKMNKEDFLRATTLYNTEVLLSHLSYLRES [K32H], the abundance fitness is -0.351 ± 0.13.

For the variant NMTTNERRVIVPADPTLWTQEHVRQWLEWAIWEYSLMEIDTSFFQNMDGKELCKMNKEDFLRATTLYNTEVLLSHLSYLRES [K32W], the abundance fitness was -0.159 ± 0.057. In the case of NMTTNERRVIVPADPTLWTQEHVRQWLEWAIREYSLMEIDTSFFQNMDGKELCKMNKEDFLRATTLYNTEVLLSHLSYLRES [K32R], the abundance fitness is -0.052 ± 0.043. In the case of NMTTNERRVIVPADPTLWTQEHVRQWLEWAIMEYSLMEIDTSFFQNMDGKELCKMNKEDFLRATTLYNTEVLLSHLSYLRES [K32M] it was -0.209 ± 0.099; in that of NMTTNERRVIVPADPTLWTQEHVRQWLEWAIIEYSLMEIDTSFFQNMDGKELCKMNKEDFLRATTLYNTEVLLSHLSYLRES [K32I], -0.189 ± 0.2. The value for NMTTNERRVIVPADPTLWTQEHVRQWLEWAINEYSLMEIDTSFFQNMDGKELCKMNKEDFLRATTLYNTEVLLSHLSYLRES [K32N] was -0.011 ± 0.19; that for NMTTNERRVIVPADPTLWTQEHVRQWLEWAIPEYSLMEIDTSFFQNMDGKELCKMNKEDFLRATTLYNTEVLLSHLSYLRES [K32P] was -0.359 ± 0.099; that for NMTTNERRVIVPADPTLWTQEHVRQWLEWAIKSYSLMEIDTSFFQNMDGKELCKMNKEDFLRATTLYNTEVLLSHLSYLRES [E33S] was -0.238 ± 0.073.

On to NMTTNERRVIVPADPTLWTQEHVRQWLEWAIKDYSLMEIDTSFFQNMDGKELCKMNKEDFLRATTLYNTEVLLSHLSYLRES [E33D], for which the abundance fitness was -0.117 ± 0.27.

With NMTTNERRVIVPADPTLWTQEHVRQWLEWAIKPYSLMEIDTSFFQNMDGKELCKMNKEDFLRATTLYNTEVLLSHLSYLRES [E33P], the abundance fitness is -0.973 ± 0.19.

For NMTTNERRVIVPADPTLWTQEHVRQWLEWAIKNYSLMEIDTSFFQNMDGKELCKMNKEDFLRATTLYNTEVLLSHLSYLRES [E33N], the abundance fitness was -0.354 ± 0.25. The value for NMTTNERRVIVPADPTLWTQEHVRQWLEWAIKQYSLMEIDTSFFQNMDGKELCKMNKEDFLRATTLYNTEVLLSHLSYLRES [E33Q] was -0.055 ± 0.1.
